In article PMC2141704:

Target: GST-mouse ZO-1 (1–862 amino acids) (mouse) (UniProt P39447)
Assay: pull-down

UniProt P39447, sequence (P39447 1-862): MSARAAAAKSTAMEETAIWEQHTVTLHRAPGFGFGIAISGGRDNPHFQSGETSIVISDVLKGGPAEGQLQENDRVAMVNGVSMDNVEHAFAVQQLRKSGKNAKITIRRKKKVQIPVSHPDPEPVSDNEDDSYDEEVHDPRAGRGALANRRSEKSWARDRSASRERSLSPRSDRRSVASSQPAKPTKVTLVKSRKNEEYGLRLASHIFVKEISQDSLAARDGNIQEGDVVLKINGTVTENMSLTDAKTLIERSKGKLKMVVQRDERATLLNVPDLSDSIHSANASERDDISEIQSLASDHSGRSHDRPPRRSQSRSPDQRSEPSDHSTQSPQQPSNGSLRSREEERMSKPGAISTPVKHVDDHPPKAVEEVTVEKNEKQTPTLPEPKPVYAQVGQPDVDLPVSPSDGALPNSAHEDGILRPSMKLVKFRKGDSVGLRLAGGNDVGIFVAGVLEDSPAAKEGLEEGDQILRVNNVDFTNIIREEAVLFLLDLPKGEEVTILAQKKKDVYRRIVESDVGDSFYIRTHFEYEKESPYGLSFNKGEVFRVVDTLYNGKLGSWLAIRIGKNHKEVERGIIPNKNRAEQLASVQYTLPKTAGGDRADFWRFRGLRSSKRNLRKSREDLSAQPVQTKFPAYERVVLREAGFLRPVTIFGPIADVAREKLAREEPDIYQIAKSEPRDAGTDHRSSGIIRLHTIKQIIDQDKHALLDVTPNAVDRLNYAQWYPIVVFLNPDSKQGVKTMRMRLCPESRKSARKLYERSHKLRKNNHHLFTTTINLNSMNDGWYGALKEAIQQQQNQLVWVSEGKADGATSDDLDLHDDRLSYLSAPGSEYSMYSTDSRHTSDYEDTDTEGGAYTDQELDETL

## MBP-AF-6 (36–206 amino acids) (domain or fragment)
  Kd: 260 nM
